Results on 13 molecules are retold here after US20240002516A1 (4B TECHNOLOGIES SUZHOU, published 2024).

Test [1] addresses T1, extracellular domain (ECD) of human TrkA protein, N-terminal flag tag and C-terminal His tag (PHA) (human, UniProt P04629 33-423).
T1 construct: Made in 293-F cells and purified by IMAC; also called TrkA ECD protein; TrkA (ECD); not shown: flag tag at the N-terminus (after the signal peptide); His tag at the C-terminus
The test is described as follows: BLI (ForteBio).

The target in test [2] is human TrkA on CellSensor TrkA-NFAT-bla CHO-K1 cells (human, UniProt P04629 33-796). Nature of the test: cell-based or functional assay.
human TrkA on CellSensor TrkA-NFAT-bla CHO-K1 cells, sequence (P04629 33-796 limits assumed, form in doubt): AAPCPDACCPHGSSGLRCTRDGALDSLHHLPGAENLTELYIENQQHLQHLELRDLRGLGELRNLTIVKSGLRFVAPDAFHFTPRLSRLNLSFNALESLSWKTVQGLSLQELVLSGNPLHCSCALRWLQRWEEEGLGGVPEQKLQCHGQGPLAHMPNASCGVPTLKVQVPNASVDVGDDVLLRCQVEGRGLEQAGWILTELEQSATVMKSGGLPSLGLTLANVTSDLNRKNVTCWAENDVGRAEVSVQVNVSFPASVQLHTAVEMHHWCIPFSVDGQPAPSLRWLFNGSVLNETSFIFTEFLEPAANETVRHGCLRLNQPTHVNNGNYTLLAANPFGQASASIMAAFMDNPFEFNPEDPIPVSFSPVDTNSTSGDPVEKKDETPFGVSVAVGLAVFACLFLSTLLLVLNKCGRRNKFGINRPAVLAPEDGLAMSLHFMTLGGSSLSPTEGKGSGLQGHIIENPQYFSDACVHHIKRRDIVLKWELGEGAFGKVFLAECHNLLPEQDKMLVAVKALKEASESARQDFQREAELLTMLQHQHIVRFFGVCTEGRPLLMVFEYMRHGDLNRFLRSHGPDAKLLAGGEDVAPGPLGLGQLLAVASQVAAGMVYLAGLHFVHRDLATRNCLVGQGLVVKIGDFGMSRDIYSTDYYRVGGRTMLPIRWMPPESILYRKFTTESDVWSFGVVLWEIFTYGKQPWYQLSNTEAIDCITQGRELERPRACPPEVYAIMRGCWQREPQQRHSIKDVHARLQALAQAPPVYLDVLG
For test [3], the target named is T1, extracellular domain (ECD) of human …. The test is described as follows: affinity after affinity maturation; method not stated in Example 5.
For test [4] the target is unchanged. Nature of the test: BLI (Octet Red384), as in Example 4. On the procedure: The bio-layer interferometry (BLI) method was used to determine the affinities of the antibodies, employing Octet Red384. Briefly, anti-human Fc-coated biosensor AHQ tips (ForteBio) were put into PBS with 0.1% w/v bovine serum albumin and 0.05% Tween-20 for a minimum of 10 min in the pre-wetting plate. The purified antibodies (100 nM in PBS with 0.1% bovine serum albumin and 0.05% Tween-20 (assay buffer)) were captured on AHQ biosensors (ForteBio) at a level of about 1 nm. The loaded biosensors were washed with an assay buffer to remove any unbound protein. Then, the association rates, dissociation rates and response were measured, using an antigen of 100 nM (in PBS with 0.1% bovine serum albumin and 0.05% Tween-20).
Two rounds of humanizations were further performed. […] In the second round, many other variants were further constructed (including several mutations in the CDR sequences). Quickchange based site-directed mutagenesis or overlap PCR were performed to create expression plasmid of new versions of 2nd round humanized antibodies. All recombinant antibodies were expressed and purified as described in Example 1, then measured antigen binding affinity using BLI technology with the Octet Red384 instrument as mentioned above. To compare the functional activity of humanized antibodies with chimeric antibodies, NFAT assay was also performed.
A general note: BLI is a label-free optical method that tracks binding on a fibre tip over time.

Test [5] has the same target. Nature of the test: SPR (BIAcore T200), antibody on protein G chip, PHA 0.625-20 nM injected. On the procedure: The binding kinetics and affinities of the humanized antibodies were determined using a BIAcoreT200™ SPR system. Approximately 30 RU of the humanized antibody was immobilized on a protein G sensor chip and serial 2-fold dilutions of the PHA (0.625-20 nM) in 1×HBS-EP+ buffer were injected over the antibody-bound surface at a flow rate of 30 μl/min.
(In general: In SPR one partner is held on a chip, and binding of the other changes the refractive index at the surface.)

T1 sequence (P04629 33-423): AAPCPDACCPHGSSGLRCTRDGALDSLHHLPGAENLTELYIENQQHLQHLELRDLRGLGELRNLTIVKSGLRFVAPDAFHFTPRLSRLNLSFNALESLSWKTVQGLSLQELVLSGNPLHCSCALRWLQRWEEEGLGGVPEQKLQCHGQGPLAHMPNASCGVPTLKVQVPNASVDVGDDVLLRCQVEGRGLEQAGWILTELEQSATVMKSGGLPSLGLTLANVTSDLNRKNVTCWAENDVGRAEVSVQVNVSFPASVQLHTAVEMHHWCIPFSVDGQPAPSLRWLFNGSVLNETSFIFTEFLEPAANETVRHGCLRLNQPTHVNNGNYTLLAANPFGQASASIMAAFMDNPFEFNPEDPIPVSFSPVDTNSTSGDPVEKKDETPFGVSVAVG

B1: PHD29 (antibody, V domains shown)
VH: QVQLVQSGAEVKKPGASVKVSCKASGYTFTTYWMHWVRQAPGQGLEWIGTIYPGNSDTSFAQKFQGRVTLTRDTSTSTAYMELSSLRSEDTAVYYCTRFYFEDWYFDVWGQGTTVTVSS
VL: DIQMTQSPSSLSASVGDRVTITCRASSSISWLYWFQQKPGKAPKPLIYYTSSLGSGVPSRFSGSGSGTDYTLTISSLQPEDFATYYCQQWHSYPPTFGGGTKVEIK
As a reminder, the Kd is the equilibrium constant for the complex coming apart. As a reminder, the koff is a measure of how fast the partners let go of each other. High values mean fast dissociation, low ones slow dissociation. For orientation: kon means a measure of how fast the partners come together. B1: in test [1], the dissociation constant Kd turned out to be 11.9 nM, the koff turned out to be 0.00441 s⁻¹ and the kon was 371000 M⁻¹ s⁻¹.

B2: PHD49-05 (antibody, V domains shown)
VH: QVQLVQSGAEVKKPGSSVKVSCKASGYTFSSHWIQWVRQAPGQGLEWIGAIYPGDDDTIYTQKFQGRATITTDKSTSTAYMELSSLRSEDTAVYYCARNYDYQAWFAYWGQGTLVTVSS
VL: DIQMTQSPSSLSASVGDRVTITCRASSSVSYLYWYQQKPGKAPKPLIYLTSSLASGVPSRFSGSGSGTDYTLTISSLQPEDFATYYCQQWSSNPLTFGQGTKLEIK
B2: in test [2], the “NFAT IC50” value worked out at 170 nM. Moreover, in test [3], the dissociation constant Kd worked out at 0.583 nM, the koff came to 0.000174 s⁻¹ and the kon was 299000 M⁻¹ s⁻¹.

B3: PHD28 (antibody, V domains shown)
VH: QVQLVQSGAEVKKPGASVKVSCKASGYTFTTYWMHWVRQAPGQGLEWIGTIYPGNSDTSLAQKFQGRVTLTRDTSTSTAYMELSSLRSEDTAVYYCTRFYFEDWYFDVWGQGTTVTVSS
VL: DIQMTQSPSSLSASVGDRVTITCRASSSISWLYWFQQKPGKAPKPLIYYTSSLGSGVPSRFSGSGSGTDYTLTISSLQPEDFATYYCQQWHSYPPTFGGGTKVEIK
In test [1], B3 yielded a Kd of 18.4 nM, a dissociation rate constant (koff) of 0.00764 s⁻¹ and a kon of 415000 M⁻¹ s⁻¹.

B4: PHD22 (antibody, V domains shown)
VH: QVQLVQSGAEVKKPGASVKVSCKASGYTFTEYWMHWVRQAPGQGLEWIGTIYPGNSDTSYAQKFQGRVTLTRDTSTSTAYMELSSLRSEDTAVYYCTRFYFEDWYFDVWGQGTTVTVSS
VL: DIQMTQSPSSLSASVGDRVTITCRASSSISWLYWFQQKPGKAPKPLIYYTSTLGSGVPSRFSGSGSGTDYTLTISSLQPEDFATYYCQQWHSYPPTFGGGTKVEIK
As for B4, in test [1], binding was characterised by a dissociation constant (Kd) of 23.8 nM, the off-rate constant (koff) amounted to 0.0113 s⁻¹ and the kon turned out to be 473000 M⁻¹ s⁻¹.

B5: PHD49-21 (antibody, V domains shown)
VH: QVQLVQSGAEVKKPGSSVKVSCKASGFTFSSYWIQWVRQAPGQGLEWIGAIYTGDGDTIYTQKFQGRATITTDESTSTAYMELSSLRSEDTAVYYCARNYHYQAWFDYWGQGTLVTVSS
VL: DIQMTQSPSSLSASVGDRVTITCRASSSVSYLYWYQQKPGKAPKPLIYLTSDLASGVPSRFSGSGSGTDYTLTISSLQPEDFATYYCQQWSSNPLTFGQGTKLEIK
With B5, the “NFAT IC50” value in test [2] is 124 nM. In test [3], this molecule registered an equilibrium dissociation constant (Kd) of 0.259 nM, a dissociation rate constant (koff) of 9.51e-05 s⁻¹ and a kon of 367000 M⁻¹ s⁻¹.

B6: PHD49-11 (antibody, IgG4, V domains shown)
VH: QVQLVQSGAEVKKPGSSVKVSCKASGYTFSSYWMQWVRQAPGQGLEWIGAIYPGDDDTIYTQKFKGRATITADKSTSTAYMELSSLRSEDTAVYYCARNYDYQAWFAYWGQGTLVTVSS
VL: DIQMTQSPSSLSASVGDRVTITCRASSSVSYLYWYQQKPGKAPKPWIYLTSNLASGVPSRFSGSGSGTDYTLTISSLQPEDFATYYCQQWSSNPLTFGQGTKLEIK
Regarding B6, in test [2], the “NFAT IC50” value amounted to 269 nM. For the same molecule, in test [4], the Kd turned out to be 10.6 nM, the koff is 0.00207 s⁻¹ and the on-rate constant (kon) worked out at 196000 M⁻¹ s⁻¹.

B7: PHD26 (antibody, V domains shown)
VH: QVQLVQSGAEVKKPGASVKVSCKASGYTFTEYWMHWVRQAPGQGLEWIGTIYPGNSDTSYAQKFQGRVTLTRDTSTSTAYMELSSLRSEDTAVYYCTRFYFEDWYFDVWGQGTTVTVSS
VL: DIQMTQSPSSLSASVGDRVTITCRASSSISWLYWFQQKPGKAPKPLIYYTSSLGSGVPSRFSGSGSGTDYTLTISSLQPEDFATYYCQQWHSYPPTFGGGTKVEIK
In test [1], B7 registered a dissociation constant (Kd) of 16.6 nM, a koff of 0.00811 s⁻¹ and an on-rate constant (kon) of 490000 M⁻¹ s⁻¹.

B8: PHD25 (antibody, V domains shown)
VH: QVQLVQSGAEVKKPGASVKVSCKASGYTFTTYWMHWVRQAPGQGLEWIGTIYPGNSDTSFAQKFQGRVTLTRDTSTSTAYMELSSLRSEDTAVYYCTRFYFEDWYFDVWGQGTTVTVSS
VL: DIQMTQSPSSLSASVGDRVTITCRASSSISWLYWFQQKPGKAPKPLIYYTSTLGSGVPSRFSGSGSGTDYTLTISSLQPEDFATYYCQQWHSYPPTFGGGTKVEIK
In test [1], B8 gave an equilibrium dissociation constant (Kd) of 12.3 nM, an off-rate constant (koff) of 0.00471 s⁻¹ and a kon of 383000 M⁻¹ s⁻¹.

B9: PHD49 (antibody, V domains shown)
VH: QVQLVQSGAEVKKPGSSVKVSCKASGFTFSSYWIQWVRQAPGQGLEWIGAIYTGDGDTIYTQKFQGRATITTDESTSTAYMELSSLRSEDTAVYYCARNYHYQAWFDYWGQGTLVTVSS
VL: DIQMTQSPSSLSASVGDRVTITCRASSSVSYLYWYQQKPGKAPKPLIYLTSSLASGVPSRFSGSGSGTDYTLTISSLQPEDFATYYCQQWSSNPLTFGQGTKLEIK
Regarding B9, the “NFAT IC50” value in test [2] was 266 nM. Also, in test [3], the affinity, expressed as Kd, was 0.174 nM; the koff came to 5.21e-05 s⁻¹; the kon turned out to be 300000 M⁻¹ s⁻¹.

B10: PHD30 (antibody, V domains shown)
VH: QVQLVQSGAEVKKPGASVKVSCKASGYTFTEYWMHWVRQAPGQGLEWIGTIYPGNSDSSFAQKFQGRVTLTRDTSTSTAYMELSSLRSEDTAVYYCTRFYYEDWYFDVWGQGTTVTVSS
VL: DIQMTQSPSSLSASVGDRVTITCRASSSISYLYWFQQKPGKAPKPLIYRTSSLGSGVPSRFSGSGSGTDYTLTISSLQPEDFATYYCQQYHSYPPTFGGGTKVEIK
In the case of B10, in test [1], the Kd was 7.23 nM, the koff turned out to be 0.00351 s⁻¹ and the kon is 486000 M⁻¹ s⁻¹.

B11: PHD48 (antibody, V domains shown)
VH: QVQLVQSGAEVKKPGASVKVSCKASGYTFTTYWMHWVRQAPGQGLEWIGTIYPGNSDSSNAQKFQGRVTLTRDTSTSTAYMELSSLRSEDTAVYYCTRFYYEDWYFDVWGQGTTVTVSS
VL: DIQMTQSPSSLSASVGDRVTITCRASSSVSYLYWFQQKPGKAPKPLIYRTSNLASGVPSRFSGSGSGTDYTLTISSLQPEDFATYYCQQYHSYPPTFGGGTKVEIK
notes: also called full-length PHD48 antibody
Regarding B11, in test [2], the “NFAT IC50” value came to 66.5 nM. In test [5], the affinity, expressed as Kd, was 1.87 nM; the koff was 0.000413 s⁻¹; the on-rate (kon) worked out at 220000 M⁻¹ s⁻¹.

B12: PHD24 (antibody, V domains shown)
VH: QVQLVQSGAEVKKPGASVKVSCKASGYTFTTYWMHWVRQAPGQGLEWIGTIYPGNSDTSLAQKFQGRVTLTRDTSTSTAYMELSSLRSEDTAVYYCTRFYFEDWYFDVWGQGTTVTVSS
VL: DIQMTQSPSSLSASVGDRVTITCRASSSISWLYWFQQKPGKAPKPLIYYTSTLGSGVPSRFSGSGSGTDYTLTISSLQPEDFATYYCQQWHSYPPTFGGGTKVEIK
B12: in test [1], binding was put at a Kd of 11.6 nM, the koff stood at 0.00518 s⁻¹ and the on-rate constant (kon) is 446000 M⁻¹ s⁻¹.

B13: PHD48-08 (antibody, IgG4, V domains shown)
VH: QVQLVQSGAEVKKPGASVKVSCKASGYTFTTYWMHWVRQAPGQGLEWIGTIYPGNSDSSNAQKFQGRVTLTADTSTSTAYMELSSLRSEDTAVYYCTRFYYEDWYFDVWGQGTTVTVSS
VL: DIQMTQSPSSLSASVGDRVTITCRASSSVSYLYWFQQKPGKAPKPLIYRTSNLASGVPSRFSGSGSGTDYTLTISSLQPEDFATYYCQQYHSYPPTFGGGTKVEIK
For the molecule B13, in test [2], the “NFAT IC50” value came out at 188 nM. In test [4], this molecule showed an equilibrium dissociation constant (Kd) of 1.38 nM, a dissociation rate constant (koff) of 0.000331 s⁻¹ and a kon of 240000 M⁻¹ s⁻¹. In addition, in test [5], binding was put at a Kd of 2.77 nM, the koff is 0.00045 s⁻¹ and the on-rate constant (kon) stood at 163000 M⁻¹ s⁻¹.
